Test results as given in doi:10.1101/725622 (bioRxiv, 2019).

Molecular target: V2R-bound βarr1 in HEK-293 cells (V2R: Homo sapiens; βarr1: Rattus …, UniProt P30518;P29066)
Test: co-IP

binding result: binds
B1: Ib30 (HA-tagged intrabody version of Fab30) (scFv, V domains shown)
VH: EVQLVESGGGLVQPGGSLRLSCAASGFNVYSSSIHWVRQAPGKGLEWVASISSYYGYTYYADSVKGRFTISADTSKNTAYLQMNSLRAEDTAVYYCARSRQFWYSGLDYWGQGTLVTVSS
VL: DIQMTQSPSSLSASVGDRVTITCRASQSVSSAVAWYQQKPGKAPKLLIYSASSLYSGVPSRFSGSRSGTDFTLTISSLQPEDFATYYCQQYKYVPVTFGQGTKVEIK
